WO2021226442A2 (dated 2021)
Each block holds one binder with its values, some of them ahead of it.

Assays:
[1] = molecular target: T1, human complement component C3 (human, UniProt P01024 23-667; P01024 672-1663); test: cell-based or functional assay
[2] = molecular target: T2, cynomolgus monkey complement component C3 (cynomolgus monkey, UniProt P01024 24-1663 (human entry)); test: SPR (Biacore), antibody captured, C3 injected, 37 C
T2 construct: In the hemolysis assays cyno serum was the source of C3; also called cyno C3
T2 sequence (P01024 other isoform, or with tags, fused parts or gaps): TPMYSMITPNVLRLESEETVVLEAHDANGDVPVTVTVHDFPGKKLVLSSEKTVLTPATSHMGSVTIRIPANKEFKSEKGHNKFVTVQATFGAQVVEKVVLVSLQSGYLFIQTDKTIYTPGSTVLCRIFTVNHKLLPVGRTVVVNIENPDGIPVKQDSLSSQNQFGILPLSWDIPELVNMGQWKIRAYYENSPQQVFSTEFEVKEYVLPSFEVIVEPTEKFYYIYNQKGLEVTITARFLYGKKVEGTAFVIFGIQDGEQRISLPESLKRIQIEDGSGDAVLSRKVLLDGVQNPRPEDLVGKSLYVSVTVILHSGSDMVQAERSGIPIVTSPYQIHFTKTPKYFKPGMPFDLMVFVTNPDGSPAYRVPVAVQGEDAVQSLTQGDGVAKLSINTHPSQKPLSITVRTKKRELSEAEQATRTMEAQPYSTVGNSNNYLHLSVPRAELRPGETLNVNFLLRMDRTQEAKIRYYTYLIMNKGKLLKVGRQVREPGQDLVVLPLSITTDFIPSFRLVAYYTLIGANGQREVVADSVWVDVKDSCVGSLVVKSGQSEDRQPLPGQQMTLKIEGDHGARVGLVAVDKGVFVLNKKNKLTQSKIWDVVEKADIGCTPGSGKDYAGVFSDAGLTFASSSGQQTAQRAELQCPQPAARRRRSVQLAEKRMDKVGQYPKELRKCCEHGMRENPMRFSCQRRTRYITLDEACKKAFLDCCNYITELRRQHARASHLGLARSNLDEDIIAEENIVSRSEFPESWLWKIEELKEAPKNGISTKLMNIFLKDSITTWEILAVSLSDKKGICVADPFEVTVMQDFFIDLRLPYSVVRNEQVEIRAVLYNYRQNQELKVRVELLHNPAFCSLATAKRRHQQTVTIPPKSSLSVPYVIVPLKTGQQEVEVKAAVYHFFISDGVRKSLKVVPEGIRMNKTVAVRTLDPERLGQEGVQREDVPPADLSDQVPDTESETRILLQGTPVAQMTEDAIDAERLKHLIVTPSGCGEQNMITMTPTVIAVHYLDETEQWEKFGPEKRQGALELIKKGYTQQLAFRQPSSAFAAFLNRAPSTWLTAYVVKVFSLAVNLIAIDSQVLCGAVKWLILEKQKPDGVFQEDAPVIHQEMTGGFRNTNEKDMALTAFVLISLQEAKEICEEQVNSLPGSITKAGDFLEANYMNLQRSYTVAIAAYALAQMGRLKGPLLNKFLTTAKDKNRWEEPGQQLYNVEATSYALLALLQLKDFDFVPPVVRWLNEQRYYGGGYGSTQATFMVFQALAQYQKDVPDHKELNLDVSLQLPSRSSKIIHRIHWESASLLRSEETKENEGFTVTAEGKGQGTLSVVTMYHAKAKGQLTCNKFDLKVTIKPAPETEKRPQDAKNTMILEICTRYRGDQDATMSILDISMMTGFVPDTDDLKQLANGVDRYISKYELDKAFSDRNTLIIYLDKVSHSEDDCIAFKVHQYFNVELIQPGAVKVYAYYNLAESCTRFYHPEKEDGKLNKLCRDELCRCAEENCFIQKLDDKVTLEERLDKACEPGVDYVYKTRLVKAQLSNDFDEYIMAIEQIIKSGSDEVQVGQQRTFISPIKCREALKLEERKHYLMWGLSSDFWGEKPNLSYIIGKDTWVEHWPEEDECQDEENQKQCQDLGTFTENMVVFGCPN

[3] = molecular target: T1, human complement component C3; test: as above
[4] = molecular target: T1, human complement component C3; test: SPR (Biacore)
[5] = molecular target: T1, human complement component C3; test: SPR (Biacore), compared with Hz38G10
[6] = molecular target: T2, cynomolgus monkey complement component …; test: SPR (Biacore), antibody captured by anti-Fc on CM5 chip, C3 injected 0.62-40 nM, 37 C
[7] = molecular target: T1, human complement component C3; test: as above

T1 sequence (P01024 23-667, chain 1 of 2): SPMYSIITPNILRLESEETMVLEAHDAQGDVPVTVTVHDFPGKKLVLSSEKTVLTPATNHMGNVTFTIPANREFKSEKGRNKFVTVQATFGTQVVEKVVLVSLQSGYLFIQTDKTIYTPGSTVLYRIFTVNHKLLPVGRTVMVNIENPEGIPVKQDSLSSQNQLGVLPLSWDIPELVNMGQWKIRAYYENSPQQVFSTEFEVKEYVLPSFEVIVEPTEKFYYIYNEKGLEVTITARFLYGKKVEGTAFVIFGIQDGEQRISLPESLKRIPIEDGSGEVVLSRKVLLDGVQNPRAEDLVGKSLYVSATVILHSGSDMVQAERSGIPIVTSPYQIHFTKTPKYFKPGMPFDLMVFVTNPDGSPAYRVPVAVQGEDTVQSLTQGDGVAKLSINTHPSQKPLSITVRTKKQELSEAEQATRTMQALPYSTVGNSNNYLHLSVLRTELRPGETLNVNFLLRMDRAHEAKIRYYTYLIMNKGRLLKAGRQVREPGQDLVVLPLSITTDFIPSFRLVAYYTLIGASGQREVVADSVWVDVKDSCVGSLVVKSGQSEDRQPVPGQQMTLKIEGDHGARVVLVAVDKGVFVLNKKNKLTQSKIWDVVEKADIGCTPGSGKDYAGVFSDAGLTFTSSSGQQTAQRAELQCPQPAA
T1 sequence (P01024 672-1663, chain 2 of 2): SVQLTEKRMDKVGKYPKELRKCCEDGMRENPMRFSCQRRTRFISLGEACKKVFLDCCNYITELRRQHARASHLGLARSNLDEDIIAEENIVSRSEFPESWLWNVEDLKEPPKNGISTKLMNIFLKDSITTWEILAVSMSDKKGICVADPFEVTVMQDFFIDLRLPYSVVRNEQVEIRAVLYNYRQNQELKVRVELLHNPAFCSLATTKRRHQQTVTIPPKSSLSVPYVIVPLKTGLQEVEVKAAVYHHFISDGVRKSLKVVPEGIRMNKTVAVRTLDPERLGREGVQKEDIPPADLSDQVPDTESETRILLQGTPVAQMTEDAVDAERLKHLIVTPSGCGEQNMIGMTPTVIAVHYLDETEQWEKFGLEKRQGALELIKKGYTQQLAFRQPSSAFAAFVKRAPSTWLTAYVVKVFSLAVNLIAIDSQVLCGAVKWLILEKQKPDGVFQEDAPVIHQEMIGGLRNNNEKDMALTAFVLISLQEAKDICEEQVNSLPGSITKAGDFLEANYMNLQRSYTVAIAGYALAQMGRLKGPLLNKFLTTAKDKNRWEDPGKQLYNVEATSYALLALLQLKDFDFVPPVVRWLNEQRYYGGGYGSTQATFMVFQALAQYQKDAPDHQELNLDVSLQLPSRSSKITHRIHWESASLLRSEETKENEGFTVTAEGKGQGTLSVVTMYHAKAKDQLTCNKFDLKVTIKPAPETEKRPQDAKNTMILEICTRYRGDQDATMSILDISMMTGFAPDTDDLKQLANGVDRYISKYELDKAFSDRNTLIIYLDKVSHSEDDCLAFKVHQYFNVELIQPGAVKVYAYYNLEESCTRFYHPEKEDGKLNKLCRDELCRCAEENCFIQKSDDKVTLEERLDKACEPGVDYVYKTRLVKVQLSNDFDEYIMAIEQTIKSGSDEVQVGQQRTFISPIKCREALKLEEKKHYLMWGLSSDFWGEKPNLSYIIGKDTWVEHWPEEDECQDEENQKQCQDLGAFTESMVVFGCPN

B1: antibody Hz38G10 (antibody, human IgG1, kappa, V domains shown)
VH: QVQLVQSGAEVKKPGASVKVSCKASGYTFTDFYMDWVRQAPGQRLEWMGYIYPHNGGTTYNQQFTGRVTITVDKSASTAYMELSSLRSEDTAVYYCARRGGFDFDYWGQGTLVTVSS
VL: DIQMTQSPSSLSASVGDRVTITCKASENVDTYVSWYQQKPGKAPKLLIYGASNRYTGVPSRFSGSGSGTDFTFTISSLQPEDIATYHCGQSHSYPLTFGQGTKLEIKR
notes: also called humanized 38G10; Hz38G10 intact antibody
alternative pathway hemolysis assay, fold against COMP or COMP-PEG [1]: ~10 fold
Kd [2]: 1.8 nM
Kd [3]: 0.3 nM

B2: variant of antibody Hz38G10 with a N55D mutation in the heavy chain CDR2 (antibody, V domains shown)
VH: QVQLVQSGAEVKKPGASVKVSCKASGYTFTDFYMDWVRQAPGQRLEWMGYIYPHDGGTTYNQQFTGRVTITVDKSASTAYMELSSLRSEDTAVYYCARRGGFDFDYWGQGTLVTVSS
VL: DIQMTQSPSSLSASVGDRVTITCKASENVDTYVSWYQQKPGKAPKLLIYGASNRYTGVPSRFSGSGSGTDFTFTISSLQPEDIATYHCGQSHSYPLTFGQGTKLEIK
notes: Mimics a fully deamidated molecule; also called Hz38G10 N55D variant
binding result [4]: binds

B3: antibody Hz38G10(N55Q) (antibody, V domains shown)
VH: QVQLVQSGAEVKKPGASVKVSCKASGYTFTDFYMDWVRQAPGQRLEWMGYIYPHQGGTTYNQQFTGRVTITVDKSASTAYMELSSLRSEDTAVYYCARRGGFDFDYWGQGTLVTVSS
VL: DIQMTQSPSSLSASVGDRVTITCKASENVDTYVSWYQQKPGKAPKLLIYGASNRYTGVPSRFSGSGSGTDFTFTISSLQPEDIATYHCGQSHSYPLTFGQGTKLEIK
binding result [5]: binds

B8: antibody 38G10 (antibody, V domains shown)
VH: EVQLQQSGPELVKPGDSVKMSCKASGYTFTDFYMDWVKQSHGKSLEWIGYIYPHNGGTTYNQNFTGKATLTVDKSSNTAYMELHSLTSEDSAVYYCARRGGFDFDYWGQGTTLTVSS
VL: NIVMTQSPKSMSLSVGERVTLRCKASENVDTYVSWYQQKPEQSPKLLIYGASNRYTGVPDRFTGSGSATEFTLTISSVQAEDLVGYHCGQSHSYPLTFGAGTKLELK
notes: Mouse hybridoma monoclonal antibody; also called parental 38G10 antibody
Kd [2]: ~0.1 nM
Kd [3]: ~0.1 nM
Kd [6]: 0.16 nM
Kd [7]: 0.19 nM

Now from value to binder:

binding result [5]: binds
B4: antibody Hz38G10(G56T) (antibody, V domains shown)
VH: QVQLVQSGAEVKKPGASVKVSCKASGYTFTDFYMDWVRQAPGQRLEWMGYIYPHNTGTTYNQQFTGRVTITVDKSASTAYMELSSLRSEDTAVYYCARRGGFDFDYWGQGTLVTVSS
VL: DIQMTQSPSSLSASVGDRVTITCKASENVDTYVSWYQQKPGKAPKLLIYGASNRYTGVPSRFSGSGSGTDFTFTISSLQPEDIATYHCGQSHSYPLTFGQGTKLEIK

binding result [5]: binds
B5: antibody Hz38G10(N55E) (antibody, V domains shown)
VH: QVQLVQSGAEVKKPGASVKVSCKASGYTFTDFYMDWVRQAPGQRLEWMGYIYPHEGGTTYNQQFTGRVTITVDKSASTAYMELSSLRSEDTAVYYCARRGGFDFDYWGQGTLVTVSS
VL: DIQMTQSPSSLSASVGDRVTITCKASENVDTYVSWYQQKPGKAPKLLIYGASNRYTGVPSRFSGSGSGTDFTFTISSLQPEDIATYHCGQSHSYPLTFGQGTKLEIK

binding result [5]: binds
B6: antibody Hz38G10(G56A) (antibody, human IgG1, kappa, V domains shown)
VH: QVQLVQSGAEVKKPGASVKVSCKASGYTFTDFYMDWVRQAPGQRLEWMGYIYPHNAGTTYNQQFTGRVTITVDKSASTAYMELSSLRSEDTAVYYCARRGGFDFDYWGQGTLVTVSS
VL: DIQMTQSPSSLSASVGDRVTITCKASENVDTYVSWYQQKPGKAPKLLIYGASNRYTGVPSRFSGSGSGTDFTFTISSLQPEDIATYHCGQSHSYPLTFGQGTKLEIKR

binding result [4]: binds
B7: Hz38G10 dsscFv (VL-linker-VH disulfide-stabilized scFv) (scFv)
scFv: MDIQMTQSPSSLSASVGDRVTITCKASENVDTYVSWYQQKPGKAPKLLIYGASNRYTGVPSRFSGSGSGTDFTFTISSLQPEDIATYHCGQSHSYPLTFGCGTKLEIKGGGGSGGGGSGGGGSQVQLVQSGAEVKKPGASVKVSCKASGYTFTDFYMDWVRQAPGQCLEWMGYIYPHNGGTTYNQQFTGRVTITVDKSASTAYMELSSLRSEDTAVYYCARRGGFDFDYWGQGTLVTVSS
notes: scFv with an engineered disulfide bond between VL and VH; also called Hz38G10 VL-linker-VH dsscFv
